# In patent US7294496B1, “Cloned human lysophospholipase” (The Regents of the University of California, priority 2000, dated 2007):
# What was measured:
# Type in all cases: biochemical
# [1] = PLA2 activity assay toward PAPC; settings: 100 mM Hepes, 2 mM DTT
# Protocol: (§1) The protein concentration was determined by the Bio-Rad protein assay, using bovine serum albumin (BSA) as standard. Protein purity was examined using 12% SDS-PAGE and Coomassie blue staining. LysoPLA activity was measured at 40° C. in the assay buier containing LysoPC, 100 mM Tris-HCl (pH 8.0) and 10 mM LMe. Cold 1-palmitoyl-sn-glycero-3-phosphorylcholine (125 μM, unless indicated otherwise) was mixed with 1-[14 C]palmitoyl-sn-glycero-3-phosphorylcholine (100,000 cpm) in a total volume of 0.5 ml. The assay was initiated by adding an aliquot of enzyme solution to the substrate mixture and incubating for the desired time. The released fatty acid was extracted by the modified Dole method and then quantified by scintillation counting. The PLA2 activity assay was carried out, using various ^14C-labeled phospholipid substrates under various conditions as given in the text. The rat brain iPLA2 was purified as described elsewhere (H. C. Yang et al., manuscript in preparation incorporated herein). Human recombinant cPLA2 was a gift from Drs. J. D. Sharp and R. M. Kramer at Lilly Laboratories. 1-[^14C]Palmitoyl-sn-glycero-3-phosphorylcholine and 1-palmitoyl-2-[1-^14C]palmitoyl-sn-glycerol-3-phosphorylcholine were purchased from Amersham. 1-Palmitoyl-2-[1-^14C]arachidonoyl-sn-glycerol-3-phosphorylcholine was purchased from DuPont-NEN. All unlabeled phospholipids were purchased from Avanti Polar Lipids. Triton X-100 (TX-100) and PIP2 were obtained from CalBiochem.
# (§2) When we first purified the mouse LysoPLA from P388D1 cells, no other enzymatic activities (PLA1, PLA2, acyltransferase, transacylase and esterase) were found. Therefore, it appears to be a LysoPL-specific LysoPLA. Similar results were obtained for the rat LysoPLA and the relative rates towards different LysoPL substrates were reported [Sugimoto et al., (1996) J. Biol. Chem. 271, 7705-11]. However, a recently sequenced rabbit enzyme that shares high sequence homology (approx. 97%) to the rat/mouse LysoPLA was reported to have both PLA2 and LysoPLA activities [Portilla, et al., […] J. Am. Soc.Nephrol. 9, 1178-86]. The specific activities, however, were only 10 nmol/min/mg for PLA2 activity and 20 nmol/min/mg for LysoPLA activity. The PLA2 activity was also reported to be selective for PlsCho substrate with arachidonic acid at the sn2 position. To determine whether hLysoPLA also expresses PLA2 activity, we have explored its ability to hydrolyze arachidonic acid labeled PlsCho as well as other phospholipid substrates under a variety of conditions.
# [2] = PLA2 activity assay toward DPPC; settings: DPPC/TX-100 mixed micelles (100 μM:400 μM); 100 mM Hepes, pH 7.5, 2 mM DTT, 5 mM EDTA
# Protocol: as §1, §2
# [3] = PLA2 activity assay toward plasmenylcholine; settings: for Activity: 100 mM Hepes, 2 mM DTT
# Protocol: as §1
# The sn-2 labeled PlsCho (plasmenylcholine or 1-O— (Z)-1P-alkenyl-2-arachidonoyl-sn-glycero-3-phosphocholine) was synthesized as follows. A total of 4 μmol [1-14C]arachidonic acid (from NEN, with specific activity […]) was diluted 10 times with cold arachidonic acid in 250 μl distilled methylene chloride (Fisher Scientific). To this 0.04 mmol p(N,N-dimethyl)amino pyridine (Aldrich) and 0.08 mmol 1,3-dicyclohexyl carbodiimide (Aldrich) were added to yield the arachidonoyl anhydride upon 1 h of stirring. Lysoplasmenylcholine (0.06 mmol, from Serdary) dissolved in 200 μl methylene chloride and 50 μl pyridine (Fisher Scienticc) was added to the arachidonoyl anhydride solution with 0.03 μmol dimethylaminopyridine and left stirring for 8 h. The reaction progress was monitored by thin layer chromatography (Merck) using a mobile phase of chloroform:methanol:triethyl amine:water (65:30:1.5:3.5), and retardation factors were 0.6 and 0.2 for PlsCho and LysoPlsCho, respectively. The separation of the product was carried out by preparative layer chromatography (Merck) in the above mobile system. The reaction yielded a total of 3.6 mg (7.7 μmol) of radiolabeled PlsCho (specific activity 0.18 μCi/μmol) by quantitative phosphate analysis.
# as §2
Molecule,"Activity ([1]; PAPC/TX-100 mixed micelles (100 μM:400 μM), pH 7.5, 5 mM EDTA) [µmol/min/mg]",Activity [2] [µmol/min/mg],"Activity ([3]; PisCho/TX-100 mixed micelles (100 μM:600 μM), pH 7.5, 5 mM EDTA) [µmol/min/mg]",fold lower activity toward PlsCho than toward DPPC ([3]; TX-100 mixed micelles) [fold],fold lower activity toward PlsCho than toward PAPC ([3]; TX-100 mixed micelles) [fold],"Activity ([1]; PAPC/PIP2/TX-100 mixed micelles (97 μM:3 μM:400 μM), pH 7.5, 80 μM Ca2+, 0.1 mg/ml BSA) [µmol/min/mg]","Activity ([3]; PisCho/PIP2/TX-100 mixed micelles (100 μM:3 μM:600 μM), pH 7.5, 80 μM Ca2+, 0.1 mg/ml BSA) [µmol/min/mg]","activity toward PlsCho relative to activity toward PAPC ([3]; in the presence of 3 mol % PIP2, same conditions)"
"Rat brain iPLA2: Ca2+-independent phospholipase A2 purified from rat brain (protein, UniProt P97570 1-807, looked up) 85/88 kDa calcium-independent …: MQFFGRLVNTLSSVTNLFSNPFRVKEVSLADYASSERVREEGQLILLQNASNRTWDCVLVSPRNPQSGFRLFQLESEADALVNFQQYSSQLPPFYESSVQVLHVEVLQHLTDLIRNHPSWTVTHLAVELGIRECFHHSRIISCANSTENEEGCTPLHLACRKGDSEILVELVQYCHAQMDVTDNKGETAFHYAVQGDNPQVLQLLGKNASAGLNQVNNQGLTPLHLACQMGKQEMVRVLLLCNARCNIMGPGGFPIHTAMKFSQKGCAEMIISMDSNQIHSKDPRYGASPLHWAKNAEMARMLLKRGCDVDSTSASGNTALHVAVTRNRFDCVMVLLTYGANAGARGEHGNTPLHLAMSKDNMEMVKALIVFGAEVDTPNDFGETPAFIASKISKLITRKALLTLLKTVGADYHFPFIQGVSTEQSSAAGPHPFFSLDRTQPPTISLNNLELQDLMPVSRARKPAFILSSMRDEKRSHDHLLCLDGGGVKGLVIIQLLIAIEKASGVATKDLFDWVAGTSTGGILALAILHSKSMAYMRGVYFRMKDEVFRGSRPYESGPLEEFLKREFGEHTKMTDVKKPKVMLTGTLSDRQPAELHLFRNYDAPEAVREPRCTPNINLKPPTQPADQLVWRAARSSGAAPTYFRPNGRFLDGGLLANNPTLDAMTEIHEYNQDMIRKGQGNKVKKLSIVVSLGTGKSPQVPVTCVDVFRPSNPWELAKTVFGAKELGKMVVDCCTDPDGRAVDRARAWCEMVGIQYFRLNPQLGSDIMLDEVSDAVLVNALWETEVYIYEHREEFQKLVQLLLSP",2.0 ± 0.04,5.6 ± 0.2,0.53 ± 0.03,10,4,–,–,–
"Human Recombinant cPLA2: human recombinant cytosolic Ca2+-dependent phospholipase A2, gift from Lilly Laboratories (protein, UniProt P47712 1-749, looked up) Cytosolic phospholipase A2: MSFIDPYQHIIVEHQYSHKFTVVVLRATKVTKGAFGDMLDTPDPYVELFISTTPDSRKRTRHFNNDINPVWNETFEFILDPNQENVLEITLMDANYVMDETLGTATFTVSSMKVGEKKEVPFIFNQVTEMVLEMSLEVCSCPDLRFSMALCDQEKTFRQQRKEHIRESMKKLLGPKNSEGLHSARDVPVVAILGSGGGFRAMVGFSGVMKALYESGILDCATYVAGLSGSTWYMSTLYSHPDFPEKGPEEINEELMKNVSHNPLLLLTPQKVKRYVESLWKKKSSGQPVTFTDIFGMLIGETLIHNRMNTTLSSLKEKVNTAQCPLPLFTCLHVKPDVSELMFADWVEFSPYEIGMAKYGTFMAPDLFGSKFFMGTVVKKYEENPLHFLMGVWGSAFSILFNRVLGVSGSQSRGSTMEEELENITTKHIVSNDSSDSDDESHEPKGTENEDAGSDYQSDNQASWIHRMIMALVSDSALFNTREGRAGKVHNFMLGLNLNTSYPLSPLSDFATQDSFDDDELDAAVADPDEFERIYEPLDVKSKKIHVVDSGLTFNLPYPLILRPQRGVDLIISFDFSARPSDSSPPFKELLLAEKWAKMNKLPFPKIDPYVFDREGLKECYVFKPKNPDMEKDCPTIIHFVLANINFRKYRAPGVPRETEEEKEIADFDIFDDPESPFSTFNFQYPNQAFKRLHDLMHFNTLNNIDVIKEAMVESIEYRRQNPSRCSVSLSNVEARRFFNKEFLSKPKA",–,–,–,–,–,21.81 ± 0.09,13.58 ± 0.05,about 60%
